Source: publication PMC11077774, “Molecular mechanism for recognition of the cargo adapter Rab6^GTP by the dynein adapter BicD2” (Life Science Alliance, 2024)

What was measured:
Experiment in all cases: pull-down; GST-tagged Rab6^GTP (WT = Q72L, or mutant) held on glutathione Sepharose columns, 1 mM GTP and 2 mM MgCl2 added for 30 min; purified BicD2-CTD added and incubated 30 min; washed, eluted with glutathione; SDS-PAGE (16%), Coomassie, band intensities quantified with ImageJ, ratio of bound BicD2-CTD/Rab6^GTP normalised to WT = 1; three experiments
Conditions in all cases: both partners purified
[1] = target: T1, GST-tagged Rab6^GTP (Rab6a/Q72L) Q65A mutant (human, UniProt P20340 1-208, Q72L | Q65A)
T1 construct: Rab6a, human, full length, Q72L background with Q65A; Loaded with 1 mM GTP and 2 mM MgCl2 on the column; source: E. coli BL20(DE3)-RIL, purified by glutathione Sepharose, washed but not eluted; not shown: GST, N-terminal, kept

[2] = target: T2, full-length GTP-bound Rab6a/Q72L with N-terminal GST tag (human, UniProt P20340 1-208, Q72L)
T2 construct: pGEX6P1 vector, PreScission site after GST; Construct described in Gibson et al, 2023; also called Rab6^GTP WT; Rab6^GTP; source: E. coli BL20(DE3)-RIL, purified by glutathione Sepharose, washed but not eluted; not shown: GST, N-terminal, kept

[3] = target: T3, GST-tagged Rab6^GTP (Rab6a/Q72L) S52A mutant (human, UniProt P20340 1-208, Q72L | S52A)
T3 construct: Rab6a, human, full length, Q72L background with S52A; Loaded with 1 mM GTP and 2 mM MgCl2 on the column; also called phosphonegative mutation S52A; source: E. coli BL20(DE3)-RIL, purified by glutathione Sepharose, washed but not eluted; not shown: GST, N-terminal, kept

[4] = target: T4, GST-tagged Rab6^GTP (Rab6a/Q72L) K53A mutant (human, UniProt P20340 1-208, Q72L | K53A)
T4 construct: Rab6a, human, full length, Q72L background with K53A; Loaded with 1 mM GTP and 2 mM MgCl2 on the column; source: E. coli BL20(DE3)-RIL, purified by glutathione Sepharose, washed but not eluted; not shown: GST, N-terminal, kept
T4 sequence (P20340 whole entry K53A/Q72L): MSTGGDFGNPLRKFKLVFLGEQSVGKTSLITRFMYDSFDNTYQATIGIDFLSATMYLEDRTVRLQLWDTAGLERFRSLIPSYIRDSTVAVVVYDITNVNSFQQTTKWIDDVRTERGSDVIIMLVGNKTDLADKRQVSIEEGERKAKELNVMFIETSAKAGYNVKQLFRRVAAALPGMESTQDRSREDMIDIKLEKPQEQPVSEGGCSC

T3 sequence (P20340 whole entry S52A/Q72L): as the sequence (P20340 whole entry K53A/Q72L) above, with S52A, A53K counted along it
T1 sequence (P20340 whole entry Q65A/Q72L): as the sequence (P20340 whole entry K53A/Q72L) above, with A53K, Q65A counted along it
T2 sequence (P20340 whole entry Q72L): as the sequence (P20340 whole entry K53A/Q72L) above, with A53K counted along it

binding result [1]: binds
binding result [2]: binds
binding result [3]: binds
binding result [4]: binds
B1: BicD2-CTD (C-terminal cargo-binding domain of human Bicaudal D2, residues 715-804) (domain or fragment, UniProt Q8TD16 715-804, looked up)
chain: YENEKAMVTETMMKLRNELKALKEDAATFSSLRAMFATRCDEYITQLDEMQRQLAAAEDEKKTLNSLLRMAIQQKLALTQRLELLELDHE
notes: Construct described in Gibson et al, 2022; also called BicD2-CTD WT
